Measured values as given in US20230357348A1 (AstraZeneca / MedImmune, published 2023).
Starred links: 1 amine or outer side, 2 acyl side, 3 side chain; linkers in the order of their positions; H or OH if unused. Non-standard residues stand in square brackets, D forms with d. Groups on a side chain read outwards from the residue. No end group written: not given here. *: point of attachment. C20 diacid = O=C(O)CCCCCCCCCCCCCCCCCCC(=O)*; C18 diacid = O=C(O)CCCCCCCCCCCCCCCCC(=O)*; γGlu = O=C(O)[C@H](CCC(=O)[*:2])N[*:1]; αMeF = C[C@](N)(Cc1ccccc1)C(=O)O; AEEA = NCCOCCOCC(=O)O; Aib = CC(C)(N)C(=O)O

B1: Peptide 517 (peptide)
peptide: H[Aib]QGTFTSDVSK[αMeF]LEAK([AEEA-AEEA-γGlu-γGlu-C18 diacid])AAREFIAWLLET-NH2
modifications: N-terminus assumed
SMILES: CC[C@H](C)[C@H](NC(=O)[C@H](Cc1ccccc1)NC(=O)[C@H](CCC(=O)O)NC(=O)[C@H](CCCNC(=N)N)NC(=O)[C@H](C)NC(=O)[C@H](C)NC(=O)[C@H](CCCCNC(=O)COCCOCCNC(=O)COCCOCCNC(=O)CC[C@H](NC(=O)CC[C@H](NC(=O)CCCCCCCCCCCCCCCCC(=O)O)C(=O)O)C(=O)O)NC(=O)[C@H](C)NC(=O)[C@H](CCC(=O)O)NC(=O)[C@H](CC(C)C)NC(=O)[C@](C)(Cc1ccccc1)NC(=O)[C@H](CCCCN)NC(=O)[C@H](CO)NC(=O)[C@@H](NC(=O)[C@H](CC(=O)O)NC(=O)[C@H](CO)NC(=O)[C@@H](NC(=O)[C@H](Cc1ccccc1)NC(=O)[C@@H](NC(=O)CNC(=O)[C@H](CCC(N)=O)NC(=O)C(C)(C)NC(=O)[C@@H](N)Cc1c[nH]cn1)[C@@H](C)O)[C@@H](C)O)C(C)C)C(=O)N[C@@H](C)C(=O)N[C@@H](Cc1c[nH]c2ccccc12)C(=O)N[C@@H](CC(C)C)C(=O)N[C@@H](CC(C)C)C(=O)N[C@@H](CCC(=O)O)C(=O)N[C@H](C(N)=O)[C@@H](C)O
B2: Peptide 513 (peptide)
peptide: H[Aib]QGT[αMeF]TSDVSK[αMeF]LDTK([AEEA-AEEA-γGlu-C18 diacid])RARD[αMeF]VQWLLA[Aib]G-NH2
modifications: N-terminus assumed
SMILES: CC(C)C[C@H](NC(=O)[C@H](CC(C)C)NC(=O)[C@H](Cc1c[nH]c2ccccc12)NC(=O)[C@H](CCC(N)=O)NC(=O)[C@@H](NC(=O)[C@](C)(Cc1ccccc1)NC(=O)[C@H](CC(=O)O)NC(=O)[C@H](CCCNC(=N)N)NC(=O)[C@H](C)NC(=O)[C@H](CCCNC(=N)N)NC(=O)[C@H](CCCCNC(=O)COCCOCCNC(=O)COCCOCCNC(=O)CC[C@H](NC(=O)CCCCCCCCCCCCCCCCC(=O)O)C(=O)O)NC(=O)[C@@H](NC(=O)[C@H](CC(=O)O)NC(=O)[C@H](CC(C)C)NC(=O)[C@](C)(Cc1ccccc1)NC(=O)[C@H](CCCCN)NC(=O)[C@H](CO)NC(=O)[C@@H](NC(=O)[C@H](CC(=O)O)NC(=O)[C@H](CO)NC(=O)[C@@H](NC(=O)[C@](C)(Cc1ccccc1)NC(=O)[C@@H](NC(=O)CNC(=O)[C@H](CCC(N)=O)NC(=O)C(C)(C)NC(=O)[C@@H](N)Cc1c[nH]cn1)[C@@H](C)O)[C@@H](C)O)C(C)C)[C@@H](C)O)C(C)C)C(=O)N[C@@H](C)C(=O)NC(C)(C)C(=O)NCC(N)=O
B3: Peptide 514 (peptide)
peptide: H[Aib]QGTFTSDVSK[αMeF]LDTK([AEEA-AEEA-γGlu-C18 diacid])AARDFVQWLLE[Aib]G-NH2
modifications: N-terminus assumed
SMILES: CC(C)C[C@H](NC(=O)[C@H](Cc1c[nH]c2ccccc12)NC(=O)[C@H](CCC(N)=O)NC(=O)[C@@H](NC(=O)[C@H](Cc1ccccc1)NC(=O)[C@H](CC(=O)O)NC(=O)[C@H](CCCNC(=N)N)NC(=O)[C@H](C)NC(=O)[C@H](C)NC(=O)[C@H](CCCCNC(=O)COCCOCCNC(=O)COCCOCCNC(=O)CC[C@H](NC(=O)CCCCCCCCCCCCCCCCC(=O)O)C(=O)O)NC(=O)[C@@H](NC(=O)[C@H](CC(=O)O)NC(=O)[C@H](CC(C)C)NC(=O)[C@](C)(Cc1ccccc1)NC(=O)[C@H](CCCCN)NC(=O)[C@H](CO)NC(=O)[C@@H](NC(=O)[C@H](CC(=O)O)NC(=O)[C@H](CO)NC(=O)[C@@H](NC(=O)[C@H](Cc1ccccc1)NC(=O)[C@@H](NC(=O)CNC(=O)[C@H](CCC(N)=O)NC(=O)C(C)(C)NC(=O)[C@@H](N)Cc1c[nH]cn1)[C@@H](C)O)[C@@H](C)O)C(C)C)[C@@H](C)O)C(C)C)C(=O)N[C@@H](CC(C)C)C(=O)N[C@@H](CCC(=O)O)C(=O)NC(C)(C)C(=O)NCC(N)=O
B4: Peptide 512 (peptide)
peptide: H[Aib]QGT[αMeF]TSDVSK[αMeF]LDTK([AEEA-AEEA-γGlu-C18 diacid])RAQD[αMeF]VRWLLA[Aib]G-NH2
modifications: N-terminus assumed
SMILES: CC(C)C[C@H](NC(=O)[C@H](CC(C)C)NC(=O)[C@H](Cc1c[nH]c2ccccc12)NC(=O)[C@H](CCCNC(=N)N)NC(=O)[C@@H](NC(=O)[C@](C)(Cc1ccccc1)NC(=O)[C@H](CC(=O)O)NC(=O)[C@H](CCC(N)=O)NC(=O)[C@H](C)NC(=O)[C@H](CCCNC(=N)N)NC(=O)[C@H](CCCCNC(=O)COCCOCCNC(=O)COCCOCCNC(=O)CC[C@H](NC(=O)CCCCCCCCCCCCCCCCC(=O)O)C(=O)O)NC(=O)[C@@H](NC(=O)[C@H](CC(=O)O)NC(=O)[C@H](CC(C)C)NC(=O)[C@](C)(Cc1ccccc1)NC(=O)[C@H](CCCCN)NC(=O)[C@H](CO)NC(=O)[C@@H](NC(=O)[C@H](CC(=O)O)NC(=O)[C@H](CO)NC(=O)[C@@H](NC(=O)[C@](C)(Cc1ccccc1)NC(=O)[C@@H](NC(=O)CNC(=O)[C@H](CCC(N)=O)NC(=O)C(C)(C)NC(=O)[C@@H](N)Cc1c[nH]cn1)[C@@H](C)O)[C@@H](C)O)C(C)C)[C@@H](C)O)C(C)C)C(=O)N[C@@H](C)C(=O)NC(C)(C)C(=O)NCC(N)=O
B5: Peptide 510 (peptide)
peptide: H[Aib]QGTFTSDVSK[αMeF]LDTK([AEEA-AEEA-γGlu-C20 diacid])RARDFVRWLL[Aib]E-OH
modifications: N-terminus assumed
SMILES: CC(C)C[C@H](NC(=O)[C@H](Cc1c[nH]c2ccccc12)NC(=O)[C@H](CCCNC(=N)N)NC(=O)[C@@H](NC(=O)[C@H](Cc1ccccc1)NC(=O)[C@H](CC(=O)O)NC(=O)[C@H](CCCNC(=N)N)NC(=O)[C@H](C)NC(=O)[C@H](CCCNC(=N)N)NC(=O)[C@H](CCCCNC(=O)COCCOCCNC(=O)COCCOCCNC(=O)CC[C@H](NC(=O)CCCCCCCCCCCCCCCCCCC(=O)O)C(=O)O)NC(=O)[C@@H](NC(=O)[C@H](CC(=O)O)NC(=O)[C@H](CC(C)C)NC(=O)[C@](C)(Cc1ccccc1)NC(=O)[C@H](CCCCN)NC(=O)[C@H](CO)NC(=O)[C@@H](NC(=O)[C@H](CC(=O)O)NC(=O)[C@H](CO)NC(=O)[C@@H](NC(=O)[C@H](Cc1ccccc1)NC(=O)[C@@H](NC(=O)CNC(=O)[C@H](CCC(N)=O)NC(=O)C(C)(C)NC(=O)[C@@H](N)Cc1c[nH]cn1)[C@@H](C)O)[C@@H](C)O)C(C)C)[C@@H](C)O)C(C)C)C(=O)N[C@@H](CC(C)C)C(=O)NC(C)(C)C(=O)N[C@@H](CCC(=O)O)C(=O)O
B6: Peptide 515 (peptide)
peptide: H[Aib]QGTFTSDVSK[αMeF]LDTK([AEEA-AEEA-γGlu-C20 diacid])AARDFVQWLLE[Aib]G-NH2
modifications: N-terminus assumed
SMILES: CC(C)C[C@H](NC(=O)[C@H](Cc1c[nH]c2ccccc12)NC(=O)[C@H](CCC(N)=O)NC(=O)[C@@H](NC(=O)[C@H](Cc1ccccc1)NC(=O)[C@H](CC(=O)O)NC(=O)[C@H](CCCNC(=N)N)NC(=O)[C@H](C)NC(=O)[C@H](C)NC(=O)[C@H](CCCCNC(=O)COCCOCCNC(=O)COCCOCCNC(=O)CC[C@H](NC(=O)CCCCCCCCCCCCCCCCCCC(=O)O)C(=O)O)NC(=O)[C@@H](NC(=O)[C@H](CC(=O)O)NC(=O)[C@H](CC(C)C)NC(=O)[C@](C)(Cc1ccccc1)NC(=O)[C@H](CCCCN)NC(=O)[C@H](CO)NC(=O)[C@@H](NC(=O)[C@H](CC(=O)O)NC(=O)[C@H](CO)NC(=O)[C@@H](NC(=O)[C@H](Cc1ccccc1)NC(=O)[C@@H](NC(=O)CNC(=O)[C@H](CCC(N)=O)NC(=O)C(C)(C)NC(=O)[C@@H](N)Cc1c[nH]cn1)[C@@H](C)O)[C@@H](C)O)C(C)C)[C@@H](C)O)C(C)C)C(=O)N[C@@H](CC(C)C)C(=O)N[C@@H](CCC(=O)O)C(=O)NC(C)(C)C(=O)NCC(N)=O
B7: Peptide 511 (peptide)
peptide: H[Aib]QGTFTSDVSK[αMeF]LDTK([AEEA-AEEA-γGlu-C20 diacid])RARDFVRWLL[Aib]E-NH2
modifications: N-terminus assumed
SMILES: CC(C)C[C@H](NC(=O)[C@H](Cc1c[nH]c2ccccc12)NC(=O)[C@H](CCCNC(=N)N)NC(=O)[C@@H](NC(=O)[C@H](Cc1ccccc1)NC(=O)[C@H](CC(=O)O)NC(=O)[C@H](CCCNC(=N)N)NC(=O)[C@H](C)NC(=O)[C@H](CCCNC(=N)N)NC(=O)[C@H](CCCCNC(=O)COCCOCCNC(=O)COCCOCCNC(=O)CC[C@H](NC(=O)CCCCCCCCCCCCCCCCCCC(=O)O)C(=O)O)NC(=O)[C@@H](NC(=O)[C@H](CC(=O)O)NC(=O)[C@H](CC(C)C)NC(=O)[C@](C)(Cc1ccccc1)NC(=O)[C@H](CCCCN)NC(=O)[C@H](CO)NC(=O)[C@@H](NC(=O)[C@H](CC(=O)O)NC(=O)[C@H](CO)NC(=O)[C@@H](NC(=O)[C@H](Cc1ccccc1)NC(=O)[C@@H](NC(=O)CNC(=O)[C@H](CCC(N)=O)NC(=O)C(C)(C)NC(=O)[C@@H](N)Cc1c[nH]cn1)[C@@H](C)O)[C@@H](C)O)C(C)C)[C@@H](C)O)C(C)C)C(=O)N[C@@H](CC(C)C)C(=O)NC(C)(C)C(=O)N[C@@H](CCC(=O)O)C(N)=O

Target: human GLP-1 receptor (hGLP-1R) (human, UniProt P43220 24-463)
Assay: cell-based or functional assay

For B1, which “hGLP-1R EC50 (pM)” value is on record?
The value was 146 pM.

B2 was tested. Which “hGLP-1R EC50 (pM)” value did it give?
Its value is 93.8 pM.

Which “hGLP-1R EC50 (pM)” value does the source give for B3 here?
Its value is 76.7 pM.

With B4 as the binder, how does the “hGLP-1R EC50 (pM)” value read?
Its value is 159 pM.

With B5 as the binder, how does the “hGLP-1R EC50 (pM)” value read?
The value was 176 pM.

How did the “hGLP-1R EC50 (pM)” value turn out when B6 was run?
Its value is 297 pM.

Which “hGLP-1R EC50 (pM)” value does the source give for B7 here?
Its value is 118 pM.

Target: human glucagon receptor (hGCGR) (human, UniProt P47871 26-477)
Assay: cell-based or functional assay

Sequence of human glucagon receptor (hGCGR) (P47871 26-477): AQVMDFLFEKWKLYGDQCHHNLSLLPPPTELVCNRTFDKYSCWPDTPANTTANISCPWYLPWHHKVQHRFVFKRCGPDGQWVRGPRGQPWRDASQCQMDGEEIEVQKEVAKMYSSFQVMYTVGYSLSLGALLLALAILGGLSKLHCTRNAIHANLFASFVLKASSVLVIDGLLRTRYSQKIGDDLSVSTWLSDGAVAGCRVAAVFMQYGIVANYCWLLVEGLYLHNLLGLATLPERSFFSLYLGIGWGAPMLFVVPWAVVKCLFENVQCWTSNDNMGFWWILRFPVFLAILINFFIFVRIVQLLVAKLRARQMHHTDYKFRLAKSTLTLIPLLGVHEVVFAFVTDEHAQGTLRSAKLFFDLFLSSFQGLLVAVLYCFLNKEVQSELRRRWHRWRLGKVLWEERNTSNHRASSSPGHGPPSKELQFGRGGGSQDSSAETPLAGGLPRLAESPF

With B1 as the binder, how does the “hGluc-R EC50 (pM)” value read?
The value was 738 pM.

How did the “hGluc-R EC50 (pM)” value turn out when B2 was run?
The value was 1340 pM.

Which “hGluc-R EC50 (pM)” value does the source give for B3 here?
Its value is 1370 pM.

With B4 as the binder, how does the “hGluc-R EC50 (pM)” value read?
The value was 2310 pM.

With B5 as the binder, how does the “hGluc-R EC50 (pM)” value read?
Its value is 118 pM.

How did the “hGluc-R EC50 (pM)” value turn out when B6 was run?
The value was 2660 pM.

For B7, which “hGluc-R EC50 (pM)” value is on record?
Its value is 140 pM.
